Reference: US20220135701A1 (Genentech, published 2022)

T1: human MerTK (human, UniProt Q12866 26-499)
T1 construct: also called HuMER
T1 sequence: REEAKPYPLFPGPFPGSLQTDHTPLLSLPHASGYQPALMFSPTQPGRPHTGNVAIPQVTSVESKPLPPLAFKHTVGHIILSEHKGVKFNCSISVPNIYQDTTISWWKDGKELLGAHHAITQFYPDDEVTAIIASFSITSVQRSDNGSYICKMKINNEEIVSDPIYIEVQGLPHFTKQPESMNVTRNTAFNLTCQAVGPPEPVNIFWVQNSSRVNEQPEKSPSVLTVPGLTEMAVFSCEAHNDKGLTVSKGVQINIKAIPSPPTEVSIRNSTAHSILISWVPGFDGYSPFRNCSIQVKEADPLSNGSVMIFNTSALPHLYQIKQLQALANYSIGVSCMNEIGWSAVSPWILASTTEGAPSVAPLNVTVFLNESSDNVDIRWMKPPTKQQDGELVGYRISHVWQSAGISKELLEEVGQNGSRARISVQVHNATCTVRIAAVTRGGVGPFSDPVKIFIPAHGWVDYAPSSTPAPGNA

T2: cynomolgus monkey MerTK (cynomolgus monkey, UniProt A0A2K5V1H9 32-505)
T2 construct: Soluble analyte in SPR; also called Cyno MerTK
T2 sequence: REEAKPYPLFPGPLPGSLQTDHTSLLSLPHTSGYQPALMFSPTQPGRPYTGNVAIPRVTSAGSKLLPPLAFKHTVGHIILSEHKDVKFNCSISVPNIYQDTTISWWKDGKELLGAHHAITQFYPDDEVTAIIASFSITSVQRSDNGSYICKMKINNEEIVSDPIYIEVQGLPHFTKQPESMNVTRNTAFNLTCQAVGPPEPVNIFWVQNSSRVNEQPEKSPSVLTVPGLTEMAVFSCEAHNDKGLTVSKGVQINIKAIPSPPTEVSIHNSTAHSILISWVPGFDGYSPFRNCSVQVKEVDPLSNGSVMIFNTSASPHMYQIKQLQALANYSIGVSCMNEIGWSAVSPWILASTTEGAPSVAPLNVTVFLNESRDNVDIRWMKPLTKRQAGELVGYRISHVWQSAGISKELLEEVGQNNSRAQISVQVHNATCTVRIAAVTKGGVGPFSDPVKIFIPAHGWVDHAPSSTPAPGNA

T3: HuMER (R26-A499) (human, UniProt Q12866 26-499)
T3 construct: Extracellular domain with both Ig-like and both fibronectin-like domains; also called human MerTK extracellular domain
T3 sequence: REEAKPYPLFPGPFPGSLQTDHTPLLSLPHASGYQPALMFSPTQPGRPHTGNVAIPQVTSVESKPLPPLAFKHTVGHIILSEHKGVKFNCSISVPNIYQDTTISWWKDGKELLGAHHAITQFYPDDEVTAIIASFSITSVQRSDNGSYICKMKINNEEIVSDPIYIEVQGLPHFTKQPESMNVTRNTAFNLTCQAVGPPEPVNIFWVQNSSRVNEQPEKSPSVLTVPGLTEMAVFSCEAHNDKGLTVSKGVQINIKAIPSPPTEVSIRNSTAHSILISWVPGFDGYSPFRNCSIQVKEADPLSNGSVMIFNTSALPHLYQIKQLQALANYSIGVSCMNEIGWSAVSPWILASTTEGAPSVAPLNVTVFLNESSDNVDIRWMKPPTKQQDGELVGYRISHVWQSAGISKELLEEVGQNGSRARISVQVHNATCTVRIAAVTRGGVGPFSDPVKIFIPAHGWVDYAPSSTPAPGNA

T4: HuMER.Ig1&2 (G76-P284) (human, UniProt Q12866 76-284)
T4 construct: also called human MerTK Ig-like 1&2 domains
T4 sequence: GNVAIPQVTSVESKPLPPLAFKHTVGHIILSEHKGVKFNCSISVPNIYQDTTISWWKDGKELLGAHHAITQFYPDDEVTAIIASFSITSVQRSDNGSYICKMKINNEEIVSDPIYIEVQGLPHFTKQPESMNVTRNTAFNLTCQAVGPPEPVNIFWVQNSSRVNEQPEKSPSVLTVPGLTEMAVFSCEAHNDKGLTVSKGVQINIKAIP

T5: HuMER.Ig1 (G76-G195) (human, UniProt Q12866 76-195)
T5 construct: also called human MerTK Ig-like 1 domain
T5 sequence: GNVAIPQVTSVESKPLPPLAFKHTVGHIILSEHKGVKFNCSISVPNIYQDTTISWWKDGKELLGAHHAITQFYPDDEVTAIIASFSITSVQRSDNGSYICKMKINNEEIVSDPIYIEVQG

T6: mouse MerTK (mouse, UniProt Q60805 23-496)
T6 construct: also called MuMER
T6 sequence (looked up): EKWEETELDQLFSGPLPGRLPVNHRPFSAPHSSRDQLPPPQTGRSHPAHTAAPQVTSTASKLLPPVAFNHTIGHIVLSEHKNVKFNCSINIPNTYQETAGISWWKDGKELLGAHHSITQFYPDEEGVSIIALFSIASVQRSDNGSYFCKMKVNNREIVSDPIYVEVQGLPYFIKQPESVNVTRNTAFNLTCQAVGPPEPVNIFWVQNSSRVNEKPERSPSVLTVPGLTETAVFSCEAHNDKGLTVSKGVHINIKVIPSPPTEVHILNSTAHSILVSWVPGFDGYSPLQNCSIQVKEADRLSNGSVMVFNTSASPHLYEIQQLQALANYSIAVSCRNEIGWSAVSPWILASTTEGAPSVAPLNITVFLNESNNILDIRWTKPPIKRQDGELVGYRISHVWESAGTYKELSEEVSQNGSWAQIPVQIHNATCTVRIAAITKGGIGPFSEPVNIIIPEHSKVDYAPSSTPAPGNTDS

T7: MuMER.Ig1&2 (A70-P279) (mouse, UniProt Q60805 70-279)
T7 construct: range 70-279; also called mouse MerTK Ig-like 1&2 domains
T7 sequence (looked up): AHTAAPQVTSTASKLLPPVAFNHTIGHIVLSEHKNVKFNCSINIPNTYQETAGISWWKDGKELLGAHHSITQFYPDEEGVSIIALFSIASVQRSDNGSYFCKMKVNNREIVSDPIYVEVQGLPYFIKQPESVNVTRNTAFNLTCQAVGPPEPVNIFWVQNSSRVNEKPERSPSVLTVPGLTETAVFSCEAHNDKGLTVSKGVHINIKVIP

T8: MuMER.Ig1 (A70-G190) (mouse, UniProt Q60805 70-190)
T8 construct: range 70-190; also called mouse MerTK Ig-like 1 domain
T8 sequence (looked up): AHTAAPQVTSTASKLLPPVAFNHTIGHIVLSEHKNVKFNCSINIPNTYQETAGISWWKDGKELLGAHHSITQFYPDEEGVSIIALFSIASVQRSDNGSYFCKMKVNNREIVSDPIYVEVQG

T9: MuMER (E23-S496) (mouse, UniProt Q60805 23-496)
T9 construct: range 23-496; also called mouse MerTK extracellular domain
T9 sequence (looked up): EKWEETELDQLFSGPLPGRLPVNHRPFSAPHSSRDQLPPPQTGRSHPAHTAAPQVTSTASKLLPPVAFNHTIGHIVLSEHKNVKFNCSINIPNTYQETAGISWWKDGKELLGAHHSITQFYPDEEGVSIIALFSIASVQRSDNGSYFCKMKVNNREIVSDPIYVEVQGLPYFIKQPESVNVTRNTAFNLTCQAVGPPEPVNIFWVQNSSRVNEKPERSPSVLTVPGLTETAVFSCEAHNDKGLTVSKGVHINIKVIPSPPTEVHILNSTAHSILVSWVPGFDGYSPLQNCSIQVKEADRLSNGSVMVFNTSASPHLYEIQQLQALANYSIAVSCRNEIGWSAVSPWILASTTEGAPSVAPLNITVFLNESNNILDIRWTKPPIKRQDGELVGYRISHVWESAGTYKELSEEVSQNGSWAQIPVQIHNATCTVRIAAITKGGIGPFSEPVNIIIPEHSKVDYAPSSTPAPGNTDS


Key:
human MerTK [1] = biological target: T1, human MerTK; experiment: SPR BIAcore T200, Ab captured, 25C
Description: (§1) All binding affinity determinations were obtained using Surface Plasmon Resonance (SPR) measurements from a BIAcore™-T200 instrument. Briefly, each rabbit or humanized antibody was captured to achieve approximately 100 RU (Response Units). Then, 3-fold serial dilutions of MerTK from various species (0.4 nM to 100 nM) diluted in HBS-EP buffer (0.01M HEPES pH 7.4, 0.15M NaCl, 3 mM EDTA and 0.05% v/v surfactant P20) was injected into the BIAcore™-T200 instrument at 25° C. or 37° C. with a flow rate of 30 μl/min. Association rates (kₒₙ) and dissociation rates (koff) were calculated using a simple one-to-one Langmuir binding model (BIAcore T200 evaluation software version 2.0). The equilibrium dissociation constant (KD) was calculated as the ratio koff/kₒₙ.

cynomolgus monkey MerTK [2] = biological target: T2, cynomolgus monkey MerTK; experiment: SPR BIAcore T200, Ab captured, 25C
Description: as §1

human MerTK [3] = biological target: T1, human MerTK; experiment: SPR BIAcore T200, Ab captured, 37C
Description: as §1

cynomolgus monkey MerTK [4] = biological target: T2, cynomolgus monkey MerTK; experiment: SPR BIAcore T200, Ab captured, 37C
Description: as §1

HuMER (R26-A499) = biological target: T3, HuMER (R26-A499); experiment: SPR BIAcore T200, Ab captured, 25C
Description: (§2) Binding affinity determinations were obtained using Surface Plasmon Resonance (SRP) measurements from a BIAcore™-T200 instrument. Briefly, each rabbit antibody was captured to achieve approximately 100 RU (Response Units). Then, 3-fold serial dilutions of the various MerTK domains (0.4 nM to 100 nM) diluted in HBS-EP buffer (0.01M HEPES pH 7.4, 0.15M NaCl, 3 mM EDTA and 0.05% v/v surfactant P20) was injected into the BIAcore™-T200 instrument at 25° C. or 37° C. with a flow rate of 30 μl/min. Association rates (kₒₙ) and dissociation rates (koff) were calculated using a simple one-to-one Langmuir binding model (BIAcore T200 evaluation software version 2.0). The equilibrium dissociation constant (KD) was calculated as the ratio koff/kₒₙ.
(§3) Antibody epitope determination was assessed by BIAcore analysis for rabbit antibodies binding against both the human and mouse MerTK extracellular domain (HuMER R26-A499 and MuMER E23-S496), Ig1&2 domain, Ig1-only domain, and Ig2-only domain (TABLE 18). Human MerTK and its domains are shown in light gray, while mouse MerTK and its domains are shown in dark gray.

HuMER.Ig1&2 (G76-P284) = biological target: T4, HuMER.Ig1&2 (G76-P284); experiment: SPR BIAcore T200, Ab captured, 25C
Description: as §2, §3

HuMER.Ig1 (G76-G195) = biological target: T5, HuMER.Ig1 (G76-G195); experiment: SPR BIAcore T200, Ab captured, 25C
Description: as §2, §3

mouse MerTK = biological target: T6, mouse MerTK; experiment: SPR BIAcore T200, Ab captured, 25C
Description: as §1

MuMER.Ig1&2 (A70-P279) = biological target: T7, MuMER.Ig1&2 (A70-P279); experiment: SPR BIAcore T200, Ab captured, 25C
Description: as §2, §3

MuMER.Ig1 (A70-G190) = biological target: T8, MuMER.Ig1 (A70-G190); experiment: SPR BIAcore T200, Ab captured, 25C
Description: as §2, §3

MuMER (E23-S496) = biological target: T9, MuMER (E23-S496); experiment: SPR BIAcore T200, Ab captured, 25C
Description: as §2, §3

Kd (human MerTK [1]) [nM]	Kd (cynomolgus monkey MerTK [2]) [nM]	Kd (human MerTK [3]) [nM]	Kd (cynomolgus monkey MerTK [4]) [nM]	Kd (HuMER (R26-A499)) [nM]	Kd (HuMER.Ig1&2 (G76-P284)) [nM]	Kd (HuMER.Ig1 (G76-G195)) [nM]	Kd (mouse MerTK) [nM]	Kd (MuMER.Ig1&2 (A70-P279)) [nM]	Kd (MuMER.Ig1 (A70-G190)) [nM]	Kd (MuMER (E23-S496)) [nM]	Binder
2.9	1.8	4.9	5.9	2.9	8.8	0.3	–	–	–	–	Rbt13B4 (antibody, V domains shown, Recombinant rabbit monoclonal antibody, Expi293, protein A purified; also called Rb13B4) VH: QSVEESGGRLVTPGTPLTLTCTVSGFSLSSYAMGWVRQAPGKGLEWIGIINSYGNTYYANWAKGRFTISRTSTTVDLRMPSLTTEDTATYFCARDPGVSSNLWGPGTLVTVSS VL: DVVMTQTPASVSEPVGGTVTIKCQASQNIYSGLAWYQQKPGQPPKLLIYGASKLASGVSSRFKGSGSGTEFTLTISDLECADAATYYCQATYYSSNSVAFGGGTEVVVK
–	–	–	–	–	–	–	0.6	0.5	0.1	0.6	Rbt14C9 (antibody, V domains shown, Recombinant rabbit monoclonal antibody, Expi293, protein A purified) VH: QSVEESGGRLVTPGTPLTLTCTVSGIDLSANTMNWVRQAPGKGLEWIGIFTATGSTYYATWVNGRFTISKTSTTVDLKITSPTTEDTATYFCARSGSGSSSGAFNIWGPGTLVTVSL VL: DPVLTQTPASVSEPVGGTVTIKCQASQSISSSLAWYQQKPGQPPKLLIYAASILASEISSRFKGSRSGTEFTLTISDLECADAATYYCQCTSYGSLFLGPFGGGTEVVVK
